The assay concerns the target MAGI-1 PDZ1 domain, Cy3-labelled, tag-free (Cy3 label (approximately 1 dye/peptide)). In words: FRET or BRET. A general note: BRET reads energy transfer from a luciferase to a nearby fluorophore.

Ends that are not written are not given here.

Regarding GAIPVMIPAQSKDGSIV (also: Cy5 label (approximately 1 dye/peptide), site not given here) [CAR (CAR^Ex7) C-terminus, Cy5-labelled, tag-free], the Kd is greater than 500 nM.

By Kd is commonly meant a measure of binding affinity in units of concentration. A low value points to a tighter complex.
